Like-named read-outs stand apart in the source and are kept apart here.
Legend:
[1] = biological target: KS-PPT di-domain construct of the yeast FAS α-subunit (S. cerevisiae); experiment: SEC; Superdex 200 Increase 30/100 GL column with calibration curve; KS-PPT di-domain construct
[2] = biological target: KS-PPT di-domain construct of the yeast FAS α-subunit (S. cerevisiae); experiment: as above; remark: listed apart in the source
[3] = biological target: α_ΔMPT-ACP construct of the yeast FAS α-subunit (KS-PPT elongated N-terminally by DM1, DM2 and KR) (S. cerevisiae); experiment: SEC; Superose 6 Increase 30/100 GL column, TRIS-HCl buffer N100; protein preparations from purifications under native and denaturing conditions (refolded)

Substance	stoichiometry N [1]	stoichiometry N [2]	stoichiometry N [3]
KS-PPT di-domain construct of the yeast FAS α-subunit (domain or fragment)	2	2.5	
α_ΔMPT-ACP construct of the yeast FAS α-subunit (KS-PPT elongated N-terminally by DM1, DM2 and KR) (domain or fragment)			2
